From patent US20220185844A1, “PEPTIDE-DERIVED THERAPEUTICS TARGETING SET8 FOR THE TREATMENT OF CANCER” (NUVOBIO CORPORATION, priority 2019, published 2022)
Values joined by “and” are separate entries in the source; they are usually repeats but may differ in a detail not shown here. Equal values may be shown once. Where a SMILES comes first, the peptide text is derived from it. Where no end group is shown, it is not given here. [ ]: non-standard residue; d: D form. Nle = CCCC[C@H](N)C(=O)O; Ahx = NCCCCCC(=O)O

Key:
Set8 = biological target: T1, Set8 (Homo sapiens, UniProt Q9NQR1); test: In vitro lysine methyltransferase (KMT) activity inhibition assay (Methyltransferase-Glo); type: biochemical
T1 construct: made in house; host or cells: Escherichia coli BL21 (DE3) RP
T1 sequence (Q9NQR1 191-352 isoform Q9NQR1-2): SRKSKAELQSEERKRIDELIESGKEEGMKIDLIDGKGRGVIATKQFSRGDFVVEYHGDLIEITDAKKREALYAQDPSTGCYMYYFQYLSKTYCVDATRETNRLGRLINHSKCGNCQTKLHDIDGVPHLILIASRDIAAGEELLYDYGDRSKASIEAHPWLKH

[1] = tested on: H4K20 mono-methylation in HCT 116 cells; test: Histone H4K20 mono-methylation western blot in treated cells; type: cell-based; conditions: HCT 116, 24 hr post dosing, 0-10 nM
Protocol: The topmost inhibitor, KBL9-TAT, from all the above experiments were tested for histone methylation status in HCT 116 cells. 3×10^6 cells were plated in 10 cm dish and incubated overnight. Cells were then treated with the inhibitors at various concentrations (0, 0.5, 1, 2, 5, 10 nM). Cells (5×10^6 cells/mL), 24 hr of post dosing, were collected in 15 mL falcon tube and centrifuged at 300×g for 10 min. The supernatant was discarded and the cells are washed with iced cold PBS. The cell pellet is flash-frozen in liquid nitrogen and stored at −80° C. Histone isolation is done using standard protocol. To summarize, cells were re-suspended in 1 mL hypotonic lysis buffer (10 mM Tris-HCl pH 8, 1 mM KCl, 1.5 mM MgCl2 and 1 mM DTT) containing protease inhibitor. The cells were transferred to 1.5 mL tube and incubated for 30 min on rotor at 4° C. to promote hypotonic swelling and lysis. The intact nuclei are collected by centrifugation at 10,000×g for 10 min in a cooled tabletop centrifuge. […]
For western blot, of total of […] of histones were separated on 15% SDS-PAGE and transferred overnight at 15V on PVDF membrane. […] Histone proteins were detected by Supersignal™ West Pico PLUS Chemiluminescent substrate (ThermoFisher Scientific) using the Chemidoc XRS+imaging system (BioRad).

HCT 116 cells [2] = test: Flow cytometry of BrdU incorporation (DNA replication); type: cell-based; conditions: HCT 116, 24 hr, 2 and 5 μM
HCT 116 cells [3] = test: Chemosensitivity to doxorubicin (Resazurin reduction); type: cell-based; conditions: HCT 116 pre-treated with 2 uM for 24 hrs, dox 16 hrs, normalized to TAT-alone
Protocol: Inhibitor-induced sensitivity of HCT 116 cells to a chemotherapeutic agent, namely doxorubicin (dox), was measured using the Resazurin reduction assay. This assay allows to maintain cells viability and, therefore, to monitor cell growth with time. Exponentially growing HCT 116 cells were seeded into 96-well plates at the density of 2.0×10^4 cells/mL and incubated overnight. The media was replaced with fresh media prior to inhibitor treatment. Cells were pre-treated with 2 μM of inhibitor peptide for 24 hr. Peptide was diluted in the cell culture media (DMEM−/−) from 5 mM stock. All the treated cells were compared to the control (TAT peptide alone with equivalent quantity of DMSO) which were considered as 100% viable. One set of wells also prepared with medium only for background subtracting and instrument gain adjustment. Following 24 hr peptide treatment, dilutions of dox were added to cells (0, 0.001, 0.002, 0.01, 0.02, 0.1, 0.2, 1, 2 uM) and incubated for 16 hrs. The experiments were carried out in quadruplicate and expressed as mean+−SD. A 10% resazurin solution (0.15 mg/ml stock dissolved in PBS, filter sterilized and stored protected from light at 4° C.) was then added to each well and incubated for 2 hr. The fluorescence was recorded using a multiwell plate reader (Perkin Elmer) at Ex. 560 nm and Em. 610 nm.

HCT 116 cells [4] = test: Cell viability assay (Resazurin reduction); type: cell-based
Protocol: Cell viability was measured using the Resazurin reduction assay which indirectly quantifies living cells through the metabolically active reduction of resazurin to fluorescent resorufin. This assay allows to maintain cells viability and, therefore, to monitor cell growth with time. Exponentially growing HCT 116 cells were seeded into 96-well plates at the density of 2.0×10^4 cells/mL and incubated overnight. The media was replaced with fresh media prior to inhibitor treatment. Cells were treated with 10 μM of inhibitor peptide for 24 hr. All the inhibitors were diluted in the cell culture media (DMEM−/−) from 5 mM stock. All the treated cells were compared to the control (no treatment with equivalent quantity of DMSO) which were considered as 100% viable. One set of wells also prepared with medium only for background subtracting and instrument gain adjustment. The experiments were carried out in triplicate and expressed as mean+−SD. A 10% resazurin solution (0.15 mg/ml stock dissolved in PBS, filter sterilized and stored protected from light at 4° C.) was then added to each well and incubated for 2 hr. The fluorescence was recorded using a multiwell plate reader (Perkin Elmer) at Ex. 560 nm and Em. 610 nm.
Briefly cells were treated with different concentrations of inhibitor for 24 hr ranging from […]. The working dilutions of all the inhibitors were prepared in DMEM−/− media. […]

[5] = biological target: T2, Recombinant Set8-His6x, pHIS2 Set8(191-352) (Homo sapiens (Human), UniProt Q9NQR1 191-352); test: DSF thermal shift, 125 µM peptide with 20 µM Set8, SYPRO Orange; DMSO control 71.5 ± 1.1
T2 construct: Purified from E. coli BL21 (DE3) RP; also called SET domain of Set8; SetD8; not shown: His6x tag from the pHIS2 vector
T2 sequence: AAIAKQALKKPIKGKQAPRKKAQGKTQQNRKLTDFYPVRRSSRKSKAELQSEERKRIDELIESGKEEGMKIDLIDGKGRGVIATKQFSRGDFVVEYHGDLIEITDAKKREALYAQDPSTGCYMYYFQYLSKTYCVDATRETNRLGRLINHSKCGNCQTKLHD

[6] = biological target: T2, Recombinant Set8-His6x, pHIS2 …; test: cell-based or functional assay
[7] = biological target: T2, Recombinant Set8-His6x, pHIS2 …; test: fluorescent polarization, fluorescein-labeled peptide with serially diluted recombinant Set8
Protocol: Recombinant Set8 protein was serially diluted in a 384-well plate, followed by the addition of fluorescein-labeled inhibitor peptide in PBS buffer. The mixtures were incubated in the dark for 30 min prior to fluorescent polarization measurements at room temperature on an EnVision Multilabel Plate Reader (PerkinElmer) with the excitation set at 480 nm and emission at 535 nm. Binding curves were generated by fitting the binding data to a hyperbolic nonlinear regression model using Prism 3.0 (GraphPad software, Inc., San Diego, Calif.), which also produced the corresponding dissociation constants (Kd).

THHHKHPGG [KBL9]
inhibition of Set8 methyltransferase activity (H4K20 methylation) in dose-response (Set8; 50 nM Set8, 10 μM H4K20 peptide, 10 μM SAM): complete inhibition | in vitro specificity among panel of related methyltransferases (Set8; panel of recombinant Set6, Set7, Set8 enzymes): in vitro specificity towards the inhibition of Set8 activity

C[C@@H](O)[C@H](N)C(=O)N[C@@H](Cc1c[nH]cn1)C(=O)N[C@@H](Cc1c[nH]cn1)C(=O)N[C@@H](Cc1c[nH]cn1)C(=O)N[C@@H](CCCCN)C(=O)N[C@@H](Cc1c[nH]cn1)C(=O)N1CCC[C@H]1C(=O)NCC(=O)NCC(=O)NCCCCCC(=O)NCC(=O)N[C@@H](CCCNC(=N)N)C(=O)N[C@@H](CCCCN)C(=O)N[C@@H](CCCCN)C(=O)N[C@@H](CCCNC(=N)N)C(=O)N[C@@H](CCCNC(=N)N)C(=O)N[C@@H](CCC(N)=O)C(=O)N[C@@H](CCCNC(=N)N)C(=O)N[C@@H](CCCNC(=N)N)C(=O)N[C@@H](CCCNC(=N)N)C(=O)N1CCC[C@H]1C(=O)N1CCC[C@H]1C(=O)N[C@@H](CCC(N)=O)C(=O)O [KBL9-TAT, THHHKHPGG{6-aminohexanoic acid}GRKKRRQRRRPPQ] (H-THHHKHPGG[Ahx]GRKKRRQRRRPPQ-OH; N-terminus and C-terminus assumed)
concentration after which H4K20 histone lysine methylation decreased [1]: at least 2 nM | BrdU incorporation (HCT 116 cells [2]): decreased BrdU incorporation in a dose-responsive manner | increase of sensitivity to doxorubicin treatment (HCT 116 cells [3]): 360% | IC50 (HCT 116 cells [4]; 24 hr dose response 1 nM to 20 nM, tested in HCT 116 and HEK 293 cells, read-out: IC50 for loss of cell viability): ~20 nM | loss of cell viability (HCT 116 cells [4]; HCT 116, 10 μM peptide, 24 hr, DMSO control = 100% viable): up to 80%

THHHKHPGG (also called EP 18; EP18) [KBL9]
Tm (° C.) [5]: 83.5 ° C.

THHHKHPGG[Ahx]GRKKRRQRRRPPQ [KBL9-TAT]
IC50, loss of cell viability (resazurin, 24 hr; HCT 116 and HEK 293 cells) [6]: ~20 nM

THHH[Nle]HPGG (also called EP 43) [KBL3]
Tm (° C.) [5]: 85.6 ° C.

SHHH[Nle]HPGT (also called EP 45) [KBL7]
Tm (° C.) [5]: 84.8 ° C.

THHH[Nle]HPHQ (also called EP 33) [KBL1]
Tm (° C.) [5]: 86.5 ° C.

SHHH[Nle]HPHG (also called EP 49) [KBL12]
Tm (° C.) [5]: 78.3 ° C.

THHH[Nle]HPGA (also called EP 47) [KBL5]
Tm (° C.) [5]: 85 ° C.

THHH[Nle]HPGE (also called EP 48) [KBL11]
Tm (° C.) [5]: 78.5 ° C.

THHH[Nle]HPEQ (also called EP 32) [KBL14]
Tm (° C.) [5]: 81.5 ° C.

THHHKHPGG (also: fluorescein label, position not given here, also called EP18) [fluorescein-labeled KBL9]
Kd [7]: 33.5 nM and 33.3 nM

THHHKHPHQ (also called EP 8) [KBL15]
Tm (° C.) [5]: 75.5 ° C.

THHHKHPGA (also called EP 22) [KBL6]
Tm (° C.) [5]: 84.8 ° C.

THHHKHPGQ (also called EP 19) [KBL8]
Tm (° C.) [5]: 84.5 ° C.

THHHKHPHK (also called EP 6) [KBL2]
Tm (° C.) [5]: 85.8 ° C.

THHHKHPGR (also called EP 21) [KBL4]
Tm (° C.) [5]: 85 ° C.

THHHKHPEQ (also called EP 7) [KBL13]
Tm (° C.) [5]: 77.6 ° C.

SHHHKHPHG (also called EP 24) [KBL10]
Tm (° C.) [5]: 82.8 ° C.
